The values that follow come from patent US20210100858A1.

The assay addresses Epidermal growth factor receptor (EGFR) on HT29 human colon adenocarcinoma cells (human) (UniProt P00533). Nature of the assay: cell-based or functional assay.

Regarding “Hi-D::EGF phage (λF7 phage with maximal EGF surface decoration, generated using SupD E. coli host at 37° C.) (from UniProt P03712 1-110)”, the EOP of phage recovered from HT29 spheroids, intercellular, 30 min is 0.00156 EOP; the EOP of phage recovered from HT29 spheroids, intercellular, 4 h is 0.0572 EOP; the EOP of phage recovered from HT29 spheroids, intercellular, 8 h stood at 0.0183 EOP; the EOP of phage recovered from HT29 spheroids, intercellular, 24 h turned out to be 0.0113 EOP. Further, the EOP of phage recovered from lysed HT29 cells, intracellular, 30 min is 0.00013 EOP; the EOP of phage recovered from lysed HT29 cells, intracellular, 4 h turned out to be 0.00392 EOP; the EOP of phage recovered from lysed HT29 cells, intracellular, 8 h came out at 0.00147 EOP; the EOP of phage recovered from lysed HT29 cells, intracellular, 24 h is 0.000312 EOP. The HT29 spheroid diameter on day 20, 10^4 PFU phage was 1330 µm; the HT29 spheroid diameter on day 20, 10^8 PFU phage was 422 µm; the recovery of phage particles from the interstitial spaces and within cells at 30 min, against wildtype phages amounted to 150 fold; the size of HT29 spheroids on day 20 against control spheroids, high concentration of phage is 3 fold.
